Assay results reported in patent US20260098102A1 (NATIONAL UNIVERSITY CORPORATION KOBE UNIVERSITY, published 2026).

Experiments:
mouse SIRPA BALB/c = biological target: T1, mouse SIRPA BALB/c (mouse (BALB/c), UniProt P97797 35-513); assay: cell-based ELISA, transfected 293α cells
T1 construct: FLAG-tagged (pFLAG V5-DEST), on 293α cells
T1 chain: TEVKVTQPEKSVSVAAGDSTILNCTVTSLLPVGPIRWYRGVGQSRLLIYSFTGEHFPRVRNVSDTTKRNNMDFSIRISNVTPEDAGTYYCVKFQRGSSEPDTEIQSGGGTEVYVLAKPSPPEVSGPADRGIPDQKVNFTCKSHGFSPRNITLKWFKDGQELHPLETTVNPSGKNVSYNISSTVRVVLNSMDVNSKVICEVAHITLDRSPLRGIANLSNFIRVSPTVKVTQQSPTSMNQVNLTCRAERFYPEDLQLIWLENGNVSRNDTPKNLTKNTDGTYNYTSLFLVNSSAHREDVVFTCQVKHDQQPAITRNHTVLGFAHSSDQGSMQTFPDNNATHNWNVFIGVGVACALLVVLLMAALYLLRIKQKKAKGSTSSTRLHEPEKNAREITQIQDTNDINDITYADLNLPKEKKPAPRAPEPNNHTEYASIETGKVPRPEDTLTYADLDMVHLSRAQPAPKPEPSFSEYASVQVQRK
Description: (§1) After the culture supernatant of 293α cells into which the pFLAG V5-DEST-monkey SIRPA or pFLAG V5-DEST-mouse SIRPA expression vector was introduced and the pFLAG V5-DEST-introduced 293α cells prepared in Example 1)-5-2 was removed, binding to monkey or mouse SIRPA was evaluated in the same manner as for the binding activity of human SIRPA.

mouse SIRPA_NOD = biological target: T2, mouse SIRPA_NOD (mouse (NOD), UniProt P97797 32-513); assay: cell-based ELISA, transfected 293α cells
T2 construct: FLAG-tagged (pFLAG V5-DEST), on 293α cells; also called NOD SCID
T2 chain: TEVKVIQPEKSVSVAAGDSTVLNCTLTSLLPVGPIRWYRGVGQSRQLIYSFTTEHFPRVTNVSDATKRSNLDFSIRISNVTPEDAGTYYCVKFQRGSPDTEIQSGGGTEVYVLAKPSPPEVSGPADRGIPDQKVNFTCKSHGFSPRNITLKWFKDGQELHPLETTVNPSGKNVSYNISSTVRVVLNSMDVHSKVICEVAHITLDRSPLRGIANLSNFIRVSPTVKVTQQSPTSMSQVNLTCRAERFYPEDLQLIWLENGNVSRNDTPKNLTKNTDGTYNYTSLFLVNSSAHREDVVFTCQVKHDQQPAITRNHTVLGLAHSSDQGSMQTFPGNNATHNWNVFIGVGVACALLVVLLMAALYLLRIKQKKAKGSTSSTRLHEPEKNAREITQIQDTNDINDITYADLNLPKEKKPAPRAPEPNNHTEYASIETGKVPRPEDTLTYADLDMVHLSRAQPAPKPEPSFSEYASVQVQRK
Description: as §1

mouse SIRPA_129 = biological target: T3, mouse SIRPA_129 (mouse (129), UniProt P97797 32-513); assay: cell-based ELISA, transfected 293α cells
T3 construct: FLAG-tagged (pFLAG V5-DEST), on 293α cells; also called 129sv
T3 chain: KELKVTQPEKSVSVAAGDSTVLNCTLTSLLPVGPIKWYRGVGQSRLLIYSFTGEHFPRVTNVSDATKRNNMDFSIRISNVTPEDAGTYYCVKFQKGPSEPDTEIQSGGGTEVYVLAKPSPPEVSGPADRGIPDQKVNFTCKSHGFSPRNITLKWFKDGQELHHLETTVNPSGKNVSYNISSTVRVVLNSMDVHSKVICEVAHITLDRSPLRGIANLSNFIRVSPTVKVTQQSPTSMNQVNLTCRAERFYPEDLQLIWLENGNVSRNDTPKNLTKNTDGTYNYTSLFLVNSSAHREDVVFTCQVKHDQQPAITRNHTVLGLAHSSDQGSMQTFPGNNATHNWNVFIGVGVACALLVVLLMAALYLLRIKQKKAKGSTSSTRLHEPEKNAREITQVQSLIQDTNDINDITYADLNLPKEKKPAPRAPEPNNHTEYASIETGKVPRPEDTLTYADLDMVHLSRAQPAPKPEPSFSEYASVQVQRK
Description: as §1

mouse SIRPA_C57BL/6 = biological target: T4, mouse SIRPA_C57BL/6 (mouse (C57BL/6), UniProt P97797 32-513); assay: cell-based ELISA, transfected 293α cells
T4 construct: FLAG-tagged (pFLAG V5-DEST), on 293α cells
T4 sequence: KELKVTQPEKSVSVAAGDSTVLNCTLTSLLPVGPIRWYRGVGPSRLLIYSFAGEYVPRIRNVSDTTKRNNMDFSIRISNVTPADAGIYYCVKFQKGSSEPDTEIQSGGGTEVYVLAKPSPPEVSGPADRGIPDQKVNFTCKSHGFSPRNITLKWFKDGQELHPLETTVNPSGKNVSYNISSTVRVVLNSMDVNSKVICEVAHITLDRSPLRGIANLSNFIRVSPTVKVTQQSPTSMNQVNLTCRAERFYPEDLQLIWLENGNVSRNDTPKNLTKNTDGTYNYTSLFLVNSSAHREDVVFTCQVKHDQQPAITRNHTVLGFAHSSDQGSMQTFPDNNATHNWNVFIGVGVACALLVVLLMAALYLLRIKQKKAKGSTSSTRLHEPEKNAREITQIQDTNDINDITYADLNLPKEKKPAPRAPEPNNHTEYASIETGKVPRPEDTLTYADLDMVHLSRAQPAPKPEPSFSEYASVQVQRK
Description: as §1

human SIRPA_V4 = biological target: T5, human SIRPA_V4 (human, UniProt P78324 31-504); assay: cell-based ELISA, transfected 293α cells, 10,000 ng/mL, normalized to FLAG
T5 construct: FLAG-tagged (pFLAG V5-DEST), on 293α cells; also called human SIRPA Variant 4
T5 chain: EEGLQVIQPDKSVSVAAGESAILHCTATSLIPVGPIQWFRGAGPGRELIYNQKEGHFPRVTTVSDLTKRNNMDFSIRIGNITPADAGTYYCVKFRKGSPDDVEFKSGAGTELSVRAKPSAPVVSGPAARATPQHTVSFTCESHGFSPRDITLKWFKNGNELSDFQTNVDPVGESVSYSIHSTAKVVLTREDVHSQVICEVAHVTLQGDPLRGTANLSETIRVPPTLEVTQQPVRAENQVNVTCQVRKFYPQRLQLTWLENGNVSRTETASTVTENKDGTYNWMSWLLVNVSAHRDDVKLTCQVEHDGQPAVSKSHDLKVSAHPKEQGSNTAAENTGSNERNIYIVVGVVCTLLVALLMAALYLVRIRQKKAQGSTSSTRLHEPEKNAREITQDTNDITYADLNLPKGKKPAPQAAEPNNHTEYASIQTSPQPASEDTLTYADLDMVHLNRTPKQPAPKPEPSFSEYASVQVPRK
Description: (§2) After the culture supernatant of 293α cells into which the vector expressing 10 different variant proteins prepared in Example 2)-1-1 was introduced was removed, 50 μL per well of a purified rat anti-human SIRPA antibody diluted with 5% FBS-containing PBS to a final concentration of 10,000 ng/ml was added to each of pFLAG V5-DEST-SIRPA_V1-V10 and pFLAG V5-DEST-introduced 293α cells, and the mixture was allowed to stand at 4° C. for one hour. Further, 50 μL per well of an anti-FLAG M2 antibody (SIGMA) diluted with 5% FBS-containing PBS to a final concentration of 10,000 ng/mL was added to a well for detecting expression of each SIRPA variant, and the mixture was allowed to stand at 4° C. for one hour. Thereafter, binding to 10 different human SIRPA variants was evaluated in the same manner as in the evaluation of the binding activity of the human SIRPA described in 1)-6-2. Binding of the rat anti-human SIRPA antibodies to each variant was standardized by expression of the FLAG tag.

human SIRPA_V8 = biological target: T6, human SIRPA_V8 (human, UniProt P78324 31-504); assay: as above
T6 construct: FLAG-tagged (pFLAG V5-DEST), on 293α cells; also called human SIRPA Variant 8
Description: as §2

B1: rat anti-human SIRPA monoclonal antibody F63 (antibody, V domains shown)
VH: QVQLKESGPGLVQPSETLSLTCTVSGFSLASYSLSWVRQPSGKGPEWMGRMYYDGDTAYNSALKSRLSISRDTSKNQVFLKMNSLQTDDTGTYYCTRDRSMFGTDYPHWYFDFWGPGTMVTVSS
VL: QFTLTQPKSVSGALRSTITIPCERSSGDIGDSYVSWYQRHLGRPPINVIYADDQRPSEVSDRFSGSIDSSSNSASLTITNLQMDDEADYFCQSYDSKIDIFGGGTKLTVL
notes: Rat IgG2a/lambda purified from hybridoma
Mouse SIRPA BALB/c
  binding result: no binding
Mouse SIRPA_NOD
  binding result: no binding
Mouse SIRPA_129
  binding result: no binding
Mouse SIRPA_C57BL/6
  binding result: no binding
Human SIRPA_V4
  binding result: binds
Human SIRPA_V8
  binding result: binds

B2: rat anti-human SIRPA monoclonal antibody F44 (antibody, V domains shown)
VH: EVQLVESGGGLVQPGRSLKLSCAASGFTFSNYYMAWVRQAPTKGLEWVTYITTGGGSTYFRDSVKGRFTISRDNAESTLYLQMDSLRSEDTATYYCTAANYGGSYFDYWGQGVMVTVSS
VL: DVQMTQSPSNLAASPGESVSINCKASKSISKYLAWYQQKPGKANKLLIYSGSTLQSGTPSRFSGSGSGTDFTLTIRNLEPEDFGLYYCQQHNEYPPTFGAGTKLELK
notes: Rat IgG2a/kappa purified from hybridoma
Mouse SIRPA BALB/c
  binding result: no binding
Mouse SIRPA_NOD
  binding result: no binding
Mouse SIRPA_129
  binding result: no binding
Mouse SIRPA_C57BL/6
  binding result: no binding
Human SIRPA_V4
  binding result: binds
Human SIRPA_V8
  binding result: binds

B3: rat anti-human SIRPA monoclonal antibody D13 (antibody, V domains shown)
VH: EVQLVESGGGLVQPGRSLKLSCLASGFTFSDYGMIWVRQAPGKGLEWVASISSSSSYIYYADTVKGRFTISRENAKNTLFLHMTSLRSEDTALYYCARRYYGFNYPFDYWGQGVMVTVSS
VL: DTVLTQSPALAVSLGQRVTISCGASKSVRTYMHWYQQKSGQQPKLLIYSASNLEAGVPSRFSGSGSGTDFTLTIDPVEADDIANYYCQQSNEPPYTFGAGTKLELK
notes: Rat IgG1/kappa purified from hybridoma
Mouse SIRPA BALB/c
  binding result: no binding
Mouse SIRPA_NOD
  binding result: no binding
Mouse SIRPA_129
  binding result: no binding
Mouse SIRPA_C57BL/6
  binding result: no binding
